Assay: soluble on expression in E. coli; label from the status in PepcDB or PDB records

Sequence	soluble on expression in E. coli
MGSDKIHHHHHHMSIHPALESVGQLFGANLIFRVPRYQRYYAWDAEQIGDFLADLELCLKARAGGNRREHFFGGLVTVRTDVEGSSRQNMEVIDGQQRLASFSMLAAQLRNAAVQLAESVDAAVPDNPKEFLLEFAKTLKAEFERYKDKIKLQVVEIDRLELSKPDLIFFKDLVEGRNPTPSRMSHRLLKQAWDRIGAKLAQIVASENTDVEKAQALSLVDTVMEEDWNPHPHDH	not soluble
MGSDKIHHHHHHMKYYYKDGEGFNSKGVFIRVGSTKRVASFDEIQRMIRSHSSNDFELISIDRDDLTFEYIESRFKEKGIKFDVYALSLIGKDNKYNNAALLLSDQNPTISKFAVFQGTDVSVFLDKKEFTGSILKQLDEILYFASLSNRKRITISGKPGREEYLDIPKRALREAIVNCYCHRDYTLSGDVKIEFYDDRVQIFSPGSLPDGLTLENIKMGMVAKRNKIIVNTLDKIDVIENYASGVRRIFEDYADFTKQPEYYISNNGVIVTLFNRNYEAQNEAQNEAQILKLDNQKRIEKILELIKENKNITRSNLKDILGVSKSTIERDISKLKEEDKLEYIGSSRNGYWKVKNN	not soluble
MNMLKKSLTALVLLGGLGAPVVAHATPAAAEAASEVQVAWVDGKVRISWTEAAGIPNTVSLELPGKPRKTLGTTTAAGDNQLVVEPSALEPTNDPASVAKIVVSDPSTAEARSAGFDRYVRGATPLAPVMTGTGVLNWQFPADTAVDSTPNDPLDVDAPVQFVPKLTLGVTPGTTDECKTVVLPATTAPYGSVPKQISPYALELLNVSEWGQSKLAGVRVRSSSTAFSTPASTGYGTRITMTGSILLQTLQNPAAGNCEDVTDTAALGGHELALQAREDGGAWYAVGVSKTDAQGKYQFVVSNPGARQYRAVLKTAAASGAAHYQSISAERSVRATPQVIDASFADDTITLGQQPNARVTVAPYGSHQVALQFKNASGQWQGLMYRTLSAGRAESGPFAFSRLGDTQFRWWVASSTSTTGLPVDAGYTYPFTLHVS	not soluble
MASMGVPALFRLLSRKFAKVITPVIEAPTEKLPDGTEIEPDLSLPNPNGVECDNLYLDMNGIVHPCSHPEDRPAPETEDEMMVAVFEYTDRILAMVRPRQLLFIAIDGVAPRAKMNQQRSRRFRSSREAALKEEELQAFIEEAKQQGIPIDENATKKKSWDSNCITPGTPFMDTLAKSLRYYIINKLNSDPCWRNVRFILSDASVPGEGEHKIMEFIRSQRVKPEYDPNTHHVVYGLDADLIMLGLATHEPHFRVLREDVFFQQGSTKKTKEERLGIKRLDDVSETNKVPVKKPFIWLNVSILREYLEVELYVPNLPFPFDLERAIDDWVFFIFFVGNDFLPHLPSLDIRDGAVERLTEIWRASLPHMGGYLTLDGSVNLARAEVILSAVGNQEDDIFKRLKQQEDRRNENYRRRQQRESNQESESYVDNVVIQRSVETQSTEVVTSSKSTSVDTKPPKKTQKIDAPAPVDLVNLSEKTSNRSLGATNRELINNRAANRLGLSREAAAVSSVNKLAASALKAQLVSNETLQNVPLEDSIASSSAYEDTDSIESSTPVVHPIDTKVSNVGQKRKAPDSTEENENTDTVRLYEPGYRERYYEQKFHISPDEPEKIREAVKHYVHGLCWVLLYYYQGCPSWTWYYPYHYAPFAADFKDLASIDVKFELNQPFKPYEQLLGVLPAASKNNLPEKLQTLMTDENSEIIDFYPENFTIDLNGKKFEWQGVALLPFIDENRLLNAVSKIYPQLTEEESKRNEDGSTLLFISEHHPMFSELVKQLYSKKRQGKPLKLSGKMAHGLFGKVNTNDSVIPNVSVQCPIDVTSADALQKYGSIDDNQSISLVFEVPKSHFVHKSMLLRGVKMPNRVLTPEDINQVRAERSFSSRRNNGNSAAALEHHHHHH	soluble
MGSDKIHHHHHHMGEEIAISLKNVSKCFKRYSRPVDRLKEVLLPGKSRTDEFWALRDINIEIPKGQTVGIVGRNGSGKSTLLQIIVGTLTPSSGDVRVVGRVSALLELGSGFNPEFTGRQNVFFNGQLLGLSQKQIEDRFDDIVAFADIGDFIEQPVKTYSSGMYVRLAFSVAVNVDPEILIVDEALAVGDVVFQHRCMRRMRAMMDSGVTTLFVSHDSGAIKTLCNSAVMIHDGKIHTTGLPNTVIIEYLKLVTELELGLAQDITVNSQQQVNPVVDNAIQASDSPNFDIESPSSNFSKATRRGSGKARIESVKILNQLGHYAGESPIFAFNEEVTLIVNLKVYYTIKSCIVGFHVCDKNGNEVIGSNTLEENIKIDKLESGEEIEIKFKFNLPLRPSSYSLTVAGAESYESLSFDWIDNIMVFQILPPDTGKLIHALVHQPMVVKVNKKVLPTVVTPA	not soluble
SLIDTHCHLDLYPKPGTVIAEADKRGMFVIAVTTTPKAFLGNIRMTEGKKRIRVAVGLHPELVAERHREVEDVCKLMAKTKYVGEIGIDGSPPHKSSIKLQTEVFARFLTRASELGGKVLSIHSRGAAALVLDEIERNGHGTLPILHWFSGSKQQVERAAKLGCWFSVGPAMLRSRKGRELLASMPRHRLLTETDGPFATDVDRPLMPWDVSMALPAIADVWGTTPVGVDQVVSANFRELINATEQGRAAAKLVGNC	not soluble
MGSDKIHHHHHHMRVLPFLLPLIPVLLATTITDLPELVVVTVATENTDGLKRLLESAKAFDINIEVLGLGEKWNGGDTRIEQGGGQKIRILSDWIEKYKDASDTMIMFVDAYDVVFNADSTTILRKFFEHYSEKRLLFGAEPFCWPDQSLAPEYPIVEFGKRFLNSGLFMGYGPEMHKILKLKSVEDKDDDQLYYTMIYLDEKLRKELNMDLDSMSKIFQNLNGVIEDVELQFKEDGTPEAYNAAYNTKPLIVHGNGPSKSHLNYLGNYLGNRWNSQLGCRTCGLEVKESEEVPLIALNLFISKPIPFIEEVLQKIAEFDYPKEKIALYIYNNQPFSIKNIQDFLQKHGKSYYTKRVINGVTEIGDREARNEAIEWNKARNVEFAFLMDGDAYFSEPKVIKDLIQYSKTYDVGIIAPMIGQPGKLFTNFWGAIAANGYYARSEDYMAIVKGNRVGYWNVPFITSAVLFNKEKLEAMKDAYSYNKNLDPDMSMCKFARDNGHFLYIDNEKYYGFLIVSDEYAETVTEGKWHPEMWQIFENRELWEARYIHPGYHKIMEPEHVVDQACPDVYDFPLMSERFCEELIEEMEGFGRWSDGSNNDKRLAGGYENVPTRDIHMNQVGFERQWLYFMDTYVRPVQEKTFIGYYHQPVESNMMFVVRYKPEEQPSLRPHHDASTFSIDIALNKKGRDYEGGGVRYIRYNCTVPADEVGYAMMFPGRLTHLHEGLATTKGTRYIMVSFINP	not soluble
MGSDKIHHHHHHAEQKEEGISVLRYDKLLSEYVRSNSFSAMQKLTMDYRQPTKILIEDVLSIGTVKDDTISQRLQKFYSDSTLLRLLSDVEAKYPNLDEVEKGLTKGFRKLKKEVPDTKIPFIYSQISAFNESIILVDTLLGISLDKYMGEDYPLYKRFYYDYQCTSMRPERIVPDCFAFYLLSRYEMNYHEGTCLVDLMMHSGKINYVVQHLLGYDDIGQAMGYSDQENEWCRKNEKDIWEYICANDHLHARDPMVIRYYMKPAPTVDMLGGQAPALIGSWVGARIIASYMKKHKDLKIKDLLELTDYQSMFEESGYLKL	not soluble
MKMEVPQVDLPLEVLAWTKVTEDILNIYKQSCRLQACIFAICTEGTMKVSINLLEYEVHPNDLITLLPGTIIQFREKAEKVSLCFAGFSAKCIGHINLLTTIGNAYPKLIEQPIIPLSENIADYLKEYFALLSHASCDESFKMDSKLADLSLQTILTSIQLMYRNYSGNNHSNRKKEICRKLIQLITEHYKDQRCAQFYADQLGISLQHLSTTVKQVTGKSVLDTIAYIVIIDAKAQLKGTDMTIQEIAYSLNFPNPSFFCKFFRRHVGMSPLEFRNS	not soluble
QLLKVCMKLPKIDWYLGLSCPSNDMPLYLMRLFSRKPVVQMIHGPVGVARSSGYCLVKASAIYYLSNTRESLINALQAYLKTPKPATERYWSTLNASTFVNGLSRERWPKQANPISNRVFWAASLLKWKNVDLLLDALTLENTTTIQSTICYIKPNVPGVEYSTPDFNTKGVDWYESPNNLNELRAQCGVFVSTSVNEP	not soluble

From the DeepSol protein solubility set
